Experimental data as given in patent US20180230213A1 (AVEO PHARMACEUTICALS, published 2018).

Tests used:
Experiment in all cases: BLI (Octet QK): rhNotch3 on the sensor, IgG in place of a Notch3 antibody, then the ligand in solution
His tagged rhDLL4 = biological target: T1, His tagged rhDLL4 (human, UniProt Q9NR61 27-524)
T1 construct: also called R&D Cat. No. 1506-D4-050
Protocol: (§1) The 4F11 antibody was tested for its ability to inhibit the binding of rhNotch3 binding to human Jag1, Jag2, DLL1 and DLL4. Binding measurements were made by bio-layer interferometry (BLI), using a FortéBio Octet® QK instrument (ForteBio, Menlo Park, Calif.). The ligands tested were rhJag1-Fc (R&D Cat. No. 1277-JG-050), rhJag2-Fc (R&D Cat. No. 1726-JG-050), rhDLL1-Fc (R&D Cat. No. 5026-DL-050), and His tagged rhDLL4 (R&D Cat. No. 1506-D4-050).
(§2) To determine the degree of inhibition of Notch3-ligand binding by antibody 4F11, the Octet sensors were loaded with recombinant human Notch3, and the antibody was allowed to bind, as described in Example 4. In positive control samples, a commercially available Notch3 polyclonal antibody capable of blocking ligand binding to recombinant human Notch3 (Notch3 Specific Control) was used instead of the 4F11 antibody. Then sensors were immersed in 500 ug/ml human IgG, to block non-specific binding. Ligands were prepared at a concentration of 400 nM in PBS containing 3% BSA, and were allowed to bind. The on-rate and off-rate for ligand binding were detected using the Octet QK instrument and software. The 4F11 antibody blocked binding of all four ligands to rhNotch3-Fc (FIG. 5A-5D).

rhJag2-Fc = biological target: T2, rhJag2-Fc (human, UniProt Q9Y219 27-1080, limits assumed)
T2 construct: also called R&D Cat. No. 1726-JG-050
Protocol: as §1, §2

rhJag1-Fc = biological target: T3, rhJag1-Fc (human, UniProt P78504 32-1046, limits assumed)
T3 construct: also called R&D Cat. No. 1277-JG-050
Protocol: as §1, §2

T2 sequence (Q9Y219 27-1080 limits assumed): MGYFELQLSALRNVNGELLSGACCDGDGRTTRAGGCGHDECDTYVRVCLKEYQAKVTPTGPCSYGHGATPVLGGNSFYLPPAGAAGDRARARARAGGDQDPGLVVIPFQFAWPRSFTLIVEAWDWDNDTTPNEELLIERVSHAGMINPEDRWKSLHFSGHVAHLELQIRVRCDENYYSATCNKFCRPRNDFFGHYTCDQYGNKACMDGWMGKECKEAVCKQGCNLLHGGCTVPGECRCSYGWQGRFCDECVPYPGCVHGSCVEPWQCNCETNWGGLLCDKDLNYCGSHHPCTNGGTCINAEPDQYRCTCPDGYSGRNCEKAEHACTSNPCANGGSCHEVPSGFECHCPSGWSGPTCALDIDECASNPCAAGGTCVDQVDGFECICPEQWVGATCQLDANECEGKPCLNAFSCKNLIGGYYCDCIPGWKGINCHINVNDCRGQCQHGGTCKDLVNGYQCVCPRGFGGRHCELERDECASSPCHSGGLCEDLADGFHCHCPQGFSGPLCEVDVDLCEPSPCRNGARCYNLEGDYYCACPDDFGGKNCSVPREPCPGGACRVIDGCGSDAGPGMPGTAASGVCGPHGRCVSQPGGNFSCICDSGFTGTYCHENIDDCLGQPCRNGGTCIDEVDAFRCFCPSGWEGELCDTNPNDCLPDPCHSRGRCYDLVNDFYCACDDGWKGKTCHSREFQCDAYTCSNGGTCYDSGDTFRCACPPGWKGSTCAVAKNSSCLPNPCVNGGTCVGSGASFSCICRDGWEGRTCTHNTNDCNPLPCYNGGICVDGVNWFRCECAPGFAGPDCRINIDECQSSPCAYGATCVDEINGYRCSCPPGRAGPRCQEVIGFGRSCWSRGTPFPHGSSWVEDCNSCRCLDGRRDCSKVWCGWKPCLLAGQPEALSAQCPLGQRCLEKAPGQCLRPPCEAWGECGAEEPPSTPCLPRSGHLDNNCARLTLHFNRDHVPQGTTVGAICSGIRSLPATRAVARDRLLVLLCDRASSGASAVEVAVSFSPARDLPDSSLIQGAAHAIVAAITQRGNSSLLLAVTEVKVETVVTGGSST
T1 sequence (Q9NR61 27-524 limits assumed): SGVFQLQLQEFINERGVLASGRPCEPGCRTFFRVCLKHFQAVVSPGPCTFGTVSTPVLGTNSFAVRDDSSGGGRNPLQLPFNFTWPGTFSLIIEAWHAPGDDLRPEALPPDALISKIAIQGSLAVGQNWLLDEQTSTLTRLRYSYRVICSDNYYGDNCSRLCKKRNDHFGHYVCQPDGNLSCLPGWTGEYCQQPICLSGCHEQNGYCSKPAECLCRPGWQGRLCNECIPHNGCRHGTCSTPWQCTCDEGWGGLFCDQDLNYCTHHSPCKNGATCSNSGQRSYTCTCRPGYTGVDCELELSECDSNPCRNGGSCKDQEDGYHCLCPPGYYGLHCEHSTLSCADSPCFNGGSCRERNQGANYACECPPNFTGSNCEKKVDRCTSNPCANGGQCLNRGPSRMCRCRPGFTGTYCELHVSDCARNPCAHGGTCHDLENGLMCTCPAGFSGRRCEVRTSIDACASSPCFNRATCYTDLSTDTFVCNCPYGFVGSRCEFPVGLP

binding result (His tagged rhDLL4): binds
binding result (rhJag2-Fc): binds
binding result (rhJag1-Fc): binds
B1: recombinant human Notch3 extracellular domain (containing EGF like domains 1-11) Fc fusion protein (Fc fusion, UniProt Q9UM47 40-467, looked up, not shown: a dimerising Fc or GST)
chain: APPCLDGSPCANGGRCTQLPSREAACLCPPGWVGERCQLEDPCHSGPCAGRGVCQSSVVAGTARFSCRCPRGFRGPDCSLPDPCLSSPCAHGARCSVGPDGRFLCSCPPGYQGRSCRSDVDECRVGEPCRHGGTCLNTPGSFRCQCPAGYTGPLCENPAVPCAPSPCRNGGTCRQSGDLTYDCACLPGFEGQNCEVNVDDCPGHRCLNGGTCVDGVNTYNCQCPPEWTGQFCTEDVDECQLQPNACHNGGTCFNTLGGHSCVCVNGWTGESCSQNIDDCATAVCFHGATCHDRVASFYCACPMGKTGLLCHLDDACVSNPCHEDAICDTNPVNGRAICTCPPGFTGGACDQDVDECSIGANPCEHLGRCVNTQGSFLCQCGRGYTGPRCETDVNECLSGPCRNQATCLDRIGQFTCICMAGFTGTYCE
notes: domain: EGF like domains 1-11; also called rhNotch3-Fc; rhNotch3
